Assay results published in US7423021B2, “Peptidic thrombin inhibitors” (NSCI Novel Science International GmbH, priority 2003, dated 2008).
Square brackets hold non-standard residues; d marks the D form. hArg = N=C(N)NCCCC[C@H](N)C(=O)O; Cha = N[C@@H](CC1CCCCC1)C(=O)O; dCha = N[C@H](CC1CCCCC1)C(=O)O; Aze = O=C(O)[C@@H]1CCN1

Assays:
thrombin [1] = conditions: literature values; cited from earlier work
thrombin [2] = target: thrombin (Homo sapiens, UniProt P00734); assay: in-vitro inhibition of the amidase activity of thrombin (fluorogenic substrate Tos-Gly-Pro-Arg-AMC); assay type: biochemical; set-up: 10 μl of human thrombin solution
Description: The values of the inhibiting constants Ki were obtained from assays in which thrombin hydrolyzes the fluorogenic substrate Tos-Gly-Pro-Arg-(7-amino-4-methylcumarin). The assays were carried out in […] of assay buffer (0.05 M tris, 0.1 M NaCl, 0.1% PEG 8000, pH 7.6) with 10 μl of human thrombin solution (10^−5 U/μl in the assay buffer) and 140 μl of a solution of the fluorogenic substrate in an assay buffer at a concentration of 30 μM. Solutions of the test compound (10 μl) were added at various concentrations. The rates of the hydrolysis of the substrate were measured by monitoring the reactions at […] of the release of 7-amino-4-methylcumarin using AMC. The reaction reached an equilibrium state within three minutes, after thrombin, the substrate, and an inhibitor were mixed. The kinetic data of the competing inhibition (Km, Vmax, and Ki) were analyzed by means of the representation according to Hanes (A/V against A at various values of A, where A is the substrate concentration and V the reaction rate).

| Substance | inhibition of the amidase activity of the thrombin (thrombin [2]; peptide concentration of 1 μM) | further results |
| --- | --- | --- |
| H-D-Phe-Pro-Arg-H |  | Ki (thrombin [1]): 70 nM |
| N-acetyl-L-Ala-D-Cha-L-Pro-D-Tyr-L-Har amide (Ac-A[dCha]P[dY][hArg]-NH2; SMILES CC(=O)N[C@@H](C)C(=O)N[C@H](CC1CCCCC1)C(=O)N1CCC[C@H]1C(=O)N[C@H](Cc1ccc(O)cc1)C(=O)N[C@@H](CCCCNC(=N)N)C(N)=O) [Example 17] | 56% |  |
| N-acetyl-L-Cha-D-Cha-L-Aze-D-Tyr-L-Har amide (Ac-[Cha][dCha][Aze][dY][hArg]-NH2) [Example 28] |  | inhibition of the amidase activity of the thrombin (thrombin [2]; peptide concentration of 250 nM): 90% |
| N-acetyl-D-Glu-L-Cha-D-Pro-D-Tyr-L-Arg amide (Ac-[dE][Cha][dP][dY]R-NH2; SMILES CC(=O)N[C@H](CCC(=O)O)C(=O)N[C@@H](CC1CCCCC1)C(=O)N1CCC[C@@H]1C(=O)N[C@H](Cc1ccc(O)cc1)C(=O)N[C@@H](CCCNC(=N)N)C(N)=O) [Example 2] | 58% |  |
